From US20060172958A1 (published 2006) come the findings set out here.

The target of test [1] is T1, yeast two-hybrid library clone encoding amino acids 103-277 of phospholipid scramblase 3 (human, UniProt Q9NRY6 103-277).
T1 construct: also called PLS3 clone; cDNA cloned from the yeast two-hybrid screen; not shown: fusion partner of the Clontech MatchMaker human liver library vector
In words: yeast two-hybrid.

The next test concerns the target c-abl kinase (UniProt P00519 1-1130, limits assumed). Description: co-immunoprecipitation with PLS3 antibody, Western blot with c-abl antibody. On the technique in general: A western blot detects proteins with antibodies after separation by electrophoresis.

T1 sequence (Q9NRY6 103-277): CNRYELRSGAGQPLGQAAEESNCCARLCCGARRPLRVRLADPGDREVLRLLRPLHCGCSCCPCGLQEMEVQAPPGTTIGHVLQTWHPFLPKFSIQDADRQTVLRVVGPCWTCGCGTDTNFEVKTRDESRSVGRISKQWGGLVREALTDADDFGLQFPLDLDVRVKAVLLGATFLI
c-abl kinase, sequence (P00519 whole entry): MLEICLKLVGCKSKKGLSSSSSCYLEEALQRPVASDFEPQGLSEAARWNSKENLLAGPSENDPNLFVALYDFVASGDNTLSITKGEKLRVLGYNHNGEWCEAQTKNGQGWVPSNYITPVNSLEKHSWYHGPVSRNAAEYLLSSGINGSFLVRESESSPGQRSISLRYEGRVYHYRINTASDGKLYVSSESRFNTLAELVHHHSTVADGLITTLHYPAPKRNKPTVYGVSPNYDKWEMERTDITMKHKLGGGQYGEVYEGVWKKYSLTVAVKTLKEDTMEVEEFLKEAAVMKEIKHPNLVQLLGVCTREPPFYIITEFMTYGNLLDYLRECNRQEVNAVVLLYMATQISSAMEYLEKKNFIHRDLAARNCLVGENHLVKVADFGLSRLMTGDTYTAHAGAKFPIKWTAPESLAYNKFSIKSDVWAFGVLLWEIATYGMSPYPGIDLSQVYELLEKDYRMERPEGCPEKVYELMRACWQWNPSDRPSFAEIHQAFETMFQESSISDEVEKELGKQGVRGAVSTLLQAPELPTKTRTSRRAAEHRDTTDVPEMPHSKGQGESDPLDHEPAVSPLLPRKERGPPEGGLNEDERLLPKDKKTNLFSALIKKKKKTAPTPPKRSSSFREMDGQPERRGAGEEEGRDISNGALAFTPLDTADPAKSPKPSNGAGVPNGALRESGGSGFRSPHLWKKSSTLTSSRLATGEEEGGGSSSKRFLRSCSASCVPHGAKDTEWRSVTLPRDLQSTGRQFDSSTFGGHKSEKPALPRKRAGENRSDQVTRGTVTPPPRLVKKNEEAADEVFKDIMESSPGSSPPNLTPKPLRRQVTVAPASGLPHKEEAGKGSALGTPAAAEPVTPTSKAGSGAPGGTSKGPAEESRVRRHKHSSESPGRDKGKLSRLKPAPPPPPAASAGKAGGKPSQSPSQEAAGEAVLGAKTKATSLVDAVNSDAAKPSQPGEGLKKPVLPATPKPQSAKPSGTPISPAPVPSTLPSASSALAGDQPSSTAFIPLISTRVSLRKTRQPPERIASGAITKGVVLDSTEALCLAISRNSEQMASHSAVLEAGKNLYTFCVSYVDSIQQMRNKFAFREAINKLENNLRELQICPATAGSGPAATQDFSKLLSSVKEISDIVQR

B1: lamin C control bait (pAS2-lamin C) (other, UniProt P02545-2 66-230, looked up)
chain: SEEVVSREVSGIKAAYEAELGDARKTLDSVAKERARLQLELSKVREEFKELKARNTKKEGDLIAAQARLKDLEALLNSKEAALSTALSEKRTLEGELHDLRGQVAKLEAALGEAKKQLQDEMLRRVDAENRLQTMKEELDFQKNIYSEELRETKRRHETRLVEID
notes: also called control bait lamin C; not shown: bait fusion partner encoded by the pAS2 vector
For B1, the binding result in test [1] is given as “no binding”.

B2: phospholipid scramblase 3 (PLS3), human, isoform not stated (enzyme)
chain: not shown
modifications: phosphothreonine, position not stated (shown by the anti-PT blot of immunoprecipitated PLS3)
notes: also called endogenous PLS3; wild-type PLS3
In the case of B2, the binding result in the test with c-abl kinase was “no binding”.
